Assay: label from the status in PepcDB records

Sequence	protein production
MSNVSSETVNLNNTSIVHMNMSNVTKLTASNYIMWSRQVHALLHGYGLTQYLDATKAAPAREITVNDVASVNPEYEAWSRQDQLIFSALIGTLSLTVQPTVSRAATSADVWATLAGTYAKPSRGHIKQLQHQIKQWKKDTRTIDEYVQGFINRFDQLALIGKIIDHEDQVDYILGGLPEDYKPIVDQMEGRDTPPNGCLTNSCDEDGCFIQMALNSV	failed
MSNVVVIAVVLIVASLTGHVSAQMDMSPSSGPSGAPDCMANLMNMTGCLSYVTVGEGGGAAKPDKTCCPALAGLVESSPQCLCYLLSGDMAAQLGIKIDKAKALKLPGVCGVITPDPSLCSLFGIPVGAPVAMGDEGASPAYAPGSMSGAESPGGFGSGPSASRGSDAPSSAPYSLFLNLIIFPLAFAFYIFC	failed
MSPCGPLNLSLAGEATTCAAPWVPNTSAVPPSGASPALPIFSMTLGAVSNLLALALLAQAAGRLRRRRSAATFLLFVASLLATDLAGHVIPGALVLRLYTAGRAPAGGACHFLGGCMVFFGLCPLLLGCGMAVERCVGVTRPLLHAARVSVARARLALAAVAAVALAVALLPLARVGRYELQYPGTWCFIGLGPPGGWRQALLAGLFASLGLVALLAALVCNTLSGLALLRARWRRRSRRPPPASGPDSRRRWGAHGPRSASASSASSIASASTFFGGSRSSGSARRARAHDVEMVGQLVGIMVVSCICWSPMLVLVALAVGGWSSTSLQRPLFLAVRLASWNQILDPWVYILLRQAVLRQLLRLLPPRAGAKGGPAGLGLTPSAWEASSLRSSRHSGLSHF	failed
MSPDLIPHQKSLSPSYLVFCDVDETLIRCKSGPEFLRHYFEFRHGAEGARRTEELLADLYARLARGLPRDEANREYHRAWRRCPVDEVEDRARHWYRERSRAADFYITATVDALRRHRAEGGAVALVSGSFPPLLPLVAEEVGAQYVLGARLERCGRVLTGELLGLPAIGDGKRVLARELLARHPHIDPADCYAYGDHPSDLPMLHMVGHATLVTPDGTHAPVKPAALT	failed
MSPDSCPLVKNILLLDSEGKRVAVKYYSDDWPTNAAKLSFEKYVFSKTSKTNARTEAEITLLDSNIIVYKFAQDLHFFVTGGENENELILASVLQGFFDAVALLLRSNVEKMEALENLDLIFLCLDEMVDQGVVLETDPNVIAGKVAMQSTEASGSLSEQTLTQALATAREHLARSLLT	failed
MSPFESMEKFPHLLVLDFDGVLCDGLQEYFQTSCQVCRQIWPDLPREKLDRQRDNFYFLRPVIETGWEMPLLLKALATGVEPAAIEAAWPAVAQTLQRQEQIGKSQLAPVLDQVRDNYIHNDLAYWLGLHHFYPGVIGQLNHWLQSPYPQWLYVVTTKEGRFVQQLLKNQKVDFPLGQIIGKEIKQPKFKTLEQLRVKHQCDGDRLWFVEDMLT	failed
MSPIVTAILVASNLGLIFLLMTVPLGLRTVRVSRVIAMDRGRLWQALWPLGSDAGWSGEILSAEPLDGEGVSRIMLSWEGRDGEPIERRARFDDVVEGSRFSMRVLEDTALDASFWKDYRETAELVSEGSGTRVTLGRTDRYRGVAFLVFRYFAMRRELSKLQRWAMTGQYRKGGWFEHPLSQVGFAVLSALILWPFFGLHLGGLALAAILTSVVALHELGHMAAFRLMGHRKARMIFIPLLGGIAIGGRPYNSRFEVAFVALMGAGFSAFLVPIAIAASAFAGSEGHKAAAALLAALAGCAALFNIANLVPVWKFDGGQVLRQICPGPVALALASFFLLSAFLAVGWEAGFSSGFLLATGAVFSILSLLTMGSGVKPRYELKPIRTVDRFAIAGALLAVFVIHGCGVLWASAQLL	failed
MSPKTTKKIAILTSGGDAPGMNATLVYLTRYATSSEIEVFFVKNGYYGLYHDELVPAHQLDLSNSLFSAGTVIGSKRFVEFKELKVREQAAQNLKKRQIDYLVVIGGDGSYMGAKLLSELGVNCYCLPGTIDNDINSSEFTIGFLTALESIKVNVQAVYHTTKSHERVAIVEVMGRHCGDLAIFGALATNADFVVTPSNKMDLKQLESAVKKILQHQNHCVVIVSENIYGFDGYPSLTAIKQHFDANNMKCNLVSLGHTQRGFAPTSLELVQISLMAQHTINLIGQNKVNQVIGNKANVPVNYDFDQAFNMPPVDRSALIAVINKNII	failed
MSPLILMITAGAGIALLLFLVLKYKFQPFVALMLVSILVALVAGVKPAELVATIEGGMGKTLGHIAIIIALGAMIGRIIELSGGAEALAKTLIERFGNRRTPLALTMAGFIIGVPVFFEVGVIILMPLAYGVARSARKPLLVFALPMCAALLTVHAFLPPHPGAVAAASQLGADLGRVLMFGLPLTALLCYVGYRVAGRMTRRNYPMTDDIRAEVYGPHVTNEDLAAWNNGSEQPASPQAVAAVAHMGLEESTGSLAAKLPPAPPPGFGLIVSLILLPIVLILLGTLATSLLPLESTLRGVLTVLGAPLVALLLDTLLCAWLLGSRRGWSRSQVSDVIGSALPGVAMVILIAGAGGVFGKVLVDTGIGAVVSDLLRTTGLPVLALGFLLTMLLRAVQGSTTVALVTTAGIIAPLIATLNLSPNHMALLCLAMGGGGLAMSHINDAGYWIFTKLAGLNVADGLRTWTVITTLLGTLGFCITLLIWPFV	failed
MSPMRIGLVCIRGSVPAFENFGFLPTDIVGSNGLVNGSRAHRVLDGIIIPGGSIVESGSLSPELAFEIRRMASDGKFVLGICSGFQALAERTDIGRKSPCPVYREGLGLLNVTFHPMISNDRVEATITGESFLTSGMSGERITGFHCHTYGEIRGDAPEIMKSRIVRADYHERPGEILSGVCSDDGNVAGTMVHGCLDENQTLVSNILKFLDADETARERILEANRKLREALRSELGISTGIRVMDRGGTRGTPPAIMIASTGSDSGKTFILTGLAGALRRRGLRVGVIKVGPDVRDIVPALYLIKEPMEEHSSIRIGRLGWMELRDVLESVRGRYDIILIEGVMSILTGLLNDITPYSGAEIALAAGIPLIMVAGCSKGGIESAVVDLDAHISVLEGLGLEVSCGILNRVYDMDIFERASGGRYLAIPRVEMSERGGTPEVEIKLEDFCLKAMETVEEHLDVDTLISFAKKPEFRGYMGPEEIKKVFSPLEHHHHHH	failed
MSPQSMLTSPQHPRRTTMVISHGTLSASAEHAAHLRQLLVHIAQATRQEDGCLLYLVSEDLSQPGHFLITEHWDNLGAMHTHLALPGVTQAIDALKHLNVTDLKITAYEAGEAINIMG	not failed
MSPRDVLDSIFAFPPNRDTLGGTSYLIVGNEGNILIDCPALDQTNLNFLRSHGGVRWLFLTHRGAIGRTAEIQQNYGCDILIQEQEAYLLPGLTVTTFTQEFAVTPTAKAIWTPGHSPGSSCLYYNHQGGVLFSGRHLLPNQKGEPVPLRTAKTFHWPRQIKSLQTILETLTPETLQYICPGANTGFLRGKRSIDTAYQRLASLDLKALLQTQPLILEHHHHHH	not failed
MSPTRAQRLEGLERIAYCSDVKLFFLVSGSRMFLLLLMLFLRVALPHIYGTELLWDSGTLLYDDMNSTWSLLNFPRSWDGVHFFHVAKHGYSHENVCAFFPLVPFIVRTVSWLNDVLLPEFLTAVPVTFQVALLNVAMGGAAAVCLRRITILTLLSGSHGVDYTNKKDKAMSMTSGTWLDSLPLPPPYYRHEVTVKEHLNARLWKEVGATVLMWMLSPTAVFSVVLYTESVFSFATFLGVYMLIVSPQGKWRTAAAEAGAVLCFAVAGCARSNATTYIGFVLYPVFLQVFFFDTYRKRYAKRYGVTSPIRRWPSLARCVIVLIEVVIIITPYLGLNYLCYSRFVPLWDDMSRAAIGGRFWAFYGWMQKRYWNVGFLQSYRWGNAPNVLISAPIMFFTVRGFVLFIVQPALARSMETESNISKEYQEPRSDCREDRCGNKKQRLFSIYKLMENLVQSSNIICLLVILAFGATMAHVNVVNRLVMSSPALYWLWGRQFVCDPWGGNTVVMVRIFLLWNCIGALFVPNGLPWT	failed
MSQALPYRPDIDTLRAAAVLSVIVFHIEKDWLPGGFLGVDIFFVISGFLMTTILHREMSGGGGRFSLKAFYIRRIKRILPAFFAVLAATLAGGFFLFTKDDFFLLWKSALTALGFASNLYFARGKDYFDPAQEEKPLLHIWSLSVEEQFYFVFPILLLLVARKSLRVQFGFLAALCALSLAASFIPSALDKYYLPHLRACELLIGSLTAVWMRCRQPAVGRRCAAVGALFAVCILSTCLFSYSEQTAYFPGPAALIPCLAVAALIYFNHYEHPLKKFFQSKITVAAGLISYSLYLWHWPILAFMRYIGPDNLPPYSPAAAVVLILLLSLFSYHCIEKPFKKWQGSFAQSVLWIYALPMLILGAGSFFAMRLPFMAQYDRLGLTRSNTSCHNNTGKQCLWGDTEKQPELLVLGDSHADHYKTFFDAVGKKEKWSATMVSADACAYVEGYASRVFQNWAACRAVYRYAEEHLPRYSKVVLAMRWGSQMPENSRSLAYDAGFFQKFDRMLHKLSSEKQAVYLMADNLASSYNVQRAYILSSRIPGYRQALRPDDESTLKANARIRELAAKYPNVYIIDAAAYIPADFQIGGLPVYSDKDHINPYGGTELAKRFSEKQRFLDTRHNH	failed
MSQDGGQGRYAGRALAGGRYQLRDLLGEGGMASVHLAYDSVLDRQVAIKTLHTELGREQAFRERFRREAQAVAKLTHTNIVSVFDTGEDDLDGMTTPYIVMEYVEGRPLGSVLDEDVRQQGAMPADKALKITADVLAALEISHEMGLVHRDIKPGNVMMTKRGVVKVMDFGIARAMQSGVTSMTQTGMVVGTPQYLSPEQALGRGVDARSDLYSVGIMLFQLVTGRLPFDADSPLAIAYAHVQEQPVAPSAVNRALPPAVDALVARALKKNPNERFPSAEAMRDECLRVAASFQAAPPSIVPGAQTSSGAGVGSAVFPPVGQGTPAPTGPVQTPYQPTPSPGPNPYGTPAPAAHSPAYGYPQQAGYQTPAPAPYAQQQAAATPPPYNLTPSAQGSGSGSPGGKSNKPVIIGSIVVAVVAVGGLIGALLMNGGGDEDPEAGGGGSSTASVSASPSKAAGYRGPDKEKTIEKDKCTEPQESYNDPDKIQVPDFTFKYIGSVKECFNAAGWQMKVVEVDENTYGEGSVRDQFPTAGTDVDPENMPEIQLKVSTGNPPSE	failed
MSQDVSAQLQFRRSTMHWLRVARTAALALLLAPAVAPARAWLPPPGHVQMPLWPTVVPDALPHPRPESVGTGEGKRPWTKVGDVSRPTITFYAPKGQNTGAAAVVFPGGGYQVLAMDLEGTDICDWLSGRGITCVLLKYRVPNSGPTWTNGGRYYPKVQTALQDAQRALGLVRQHADDWGVDPHRVGVIGFSAGGHLVAAMSTHFTRRTYPSVDAADAQSCRPDFAIAVYPGHLWAHEDEDRAKRDPTHLPLRPDITVTADTPPTFLLQAEDDEVDGVSQSLAYYVALKQAGVPAEMHLYAEGGHAFGLRAGKLPIAQWPHLVETWLGTIGMLGTASAP	failed
MSQFTPHFTYRNVALALLVSTVLNGCATKGFRDADDQAERDIRTAEQLHGLSLKQPSSPSLVWVDEPWVNPRPIRVSARAQQVKLPPCSLTLIIDGSLSLYEVGQRITRSCGFPVVITPDAMSALSGSASQGGVGATRAIQGALPRPDEGGRPALGSIGGVTSTQSFSPNIGAGLITDISWEGEPLGGALDQITSRLGLNWKFENNQVVLYYLDTRTYRLKVLNAETAMNSNLTGTSSSTAGGDSSSVSGSQNSGQSTSVKLESKIHNDIGQSIKSMVSSSGSWHLSGSTGELVVTDVPQVLDRVESYIDSLNVRMNRMVKLMVSVYSVQRKGSSQTSLDWSVVGKRLDRFGLTLAGTPTATTAVSSAGINVVDGKFAGTTALFRALETQGKVSVVMAHEATTTNLVPAPFQIAGQMVYLRSQKTSVSENYATTDMEPGSITTGTQMTLLPDIRDEGDIQLQFNFSHSDPAQLRKESSKDGNTKMEMPYTTVRSLSERVNLKPGQTLIVSGYNSRNLTASREGAFDPDVTVAGGGKSSETDDVTLIIAVTPVLM	failed
MSQILTITFPIYAALAVGFLVVRQGWFSSADMRVLGRYVMDIALPALLFNAVASRDVAEVFHPGYMLAFAAAGLATVALSYLWFTLTGTEARRRAVAVMGSSCPNSGFVGYPVMLLTFPDLAGVILALNMLVENVLIIPACLILTDMARGRGQGGIGQRIAGILWGVLKRPMVIGLLLGLAVSLAGVPVPQTVTRLMQMLAASASALALVVIGGSLAGLSWKGSRWHAVQISALKLLLHPALALLAVILVAAIGLPLDPDMGTALILSAAMPMFGIYAVLAQELGHEGMASIALLTATTLAFFTLSGLLWWLT	failed

— a protein production outcome set (Wang et al. 2014)
